Measurements taken from patent US20240398804.

Molecular target: YAP1 Y357F (UniProt P46937)

| Substance | YAP1 tyrosine phosphorylation (immunoprecipitation, immunoblot) |
| --- | --- |
| YES1 (Yamaguchi sarcoma viral oncogene homolog 1) | Under conditions where YES1 or SRC phosphorylated YAP1, we failed to detect phosphorylation of the YAP1 Y357F mutant |
| WT SRC (expressed from plasmid in 293T cells) | Under conditions where YES1 or SRC phosphorylated YAP1, we failed to detect phosphorylation of the YAP1 Y357F mutant |
